Substrate in data set [1]: O=C(CCc1ccc(O)cc1)c1c(O)cc(O)cc1O
Description: HPLC glycosylation assay, Lineweaver-Burk. The conditions noted are these: 1 mM UDP-glucose, 200 mM MES pH 6.5, 1 mM DTT, 30 °C, 15 min, acceptor varied. It is filed as biochemical, Odontosoria chinensis. An excerpt: (§1) HPLC glycosylation assay, Lineweaver-Burk on ScCGT1

Substrate in data set [2]: O=C1CC(O)(c2ccc(O)cc2)Oc2cc(O)cc(O)c21
Kind of data set: HPLC glycosylation assay, Lineweaver-Burk. Format: biochemical, Odontosoria chinensis. The conditions noted are these: 1 mM UDP-glucose, 200 mM MES pH 6.5, 1 mM DTT, 30 °C, 15 min, acceptor varied.
Source text: as §1

B1: ScCGT1 (Odontosoria chinensis) (protein)
chain: MASCDTGLLSDQRHHALMFPYPVQGHIQPFMRLSKLLATNYGFTISFFNSEENHRRLLADRDEPASQEDRAEDAEGKPLDFRMLFLPDVLPSSTEVEQMSAGTHIEKSHVLLSKTFLNTDPAALETLIRSQSPPITCLILDPLVTVIAPGLGEKLGITSLIFFPASAASLATAIRSGEVDGDAKQMTRIVGAPVLDVKEVNPFLSICGRGHSDFMARLFTQPFRKKLIKANDIILINTVEELEESTLKHLQEENKVCAIGPVLPPWGAFAVPTLWSQDYSCLDWLDKQPAASVLFVSFGSLATLSSTQLSDLALGLEASNQRILWVTRPDQIYGKAPDLPSDFLERIKDRILVFSWVPQLHVLCHTSVGGFLSHCGWNSTIESIAAGVPILAWPFFGDQMLNAKCVVEKWRIGLALTGAGGAMSKAVVETRVKDLMEGDLSKELRNRAQNLKHIVVKALSHGGSSSSNLQKLFGHL
In general, Km refers to the concentration of substrate that gives half-maximal velocity. The Vmax is the rate approached at saturating substrate. As usually defined, the kcat is the number of substrate molecules converted per active site and unit of time at saturation. Usually kcat/Km stands for the second-order rate constant that governs catalysis at low substrate concentration. In the case of B1, in data set [1], the Km turned out to be 23.8 ± 2.8 µM, the maximal velocity (Vmax) is 0.011 µmol/min/mg, the catalytic constant (kcat) turned out to be 0.0133 ± 0.000333 s⁻¹ and the kcat/Km worked out at 560 M⁻¹ s⁻¹. In data set [2], the Km was determined as 17.5 ± 2.0 µM, the Vmax stood at 0.0115 µmol/min/mg, the kcat is 0.0133 ± 0.000167 s⁻¹ and the kcat/Km was determined as 795 M⁻¹ s⁻¹.

B2: ScCGT1 (Odontosoria chinensis; P164T) (protein)
chain: MASCDTGLLSDQRHHALMFPYPVQGHIQPFMRLSKLLATNYGFTISFFNSEENHRRLLADRDEPASQEDRAEDAEGKPLDFRMLFLPDVLPSSTEVEQMSAGTHIEKSHVLLSKTFLNTDPAALETLIRSQSPPITCLILDPLVTVIAPGLGEKLGITSLIFFTASAASLATAIRSGEVDGDAKQMTRIVGAPVLDVKEVNPFLSICGRGHSDFMARLFTQPFRKKLIKANDIILINTVEELEESTLKHLQEENKVCAIGPVLPPWGAFAVPTLWSQDYSCLDWLDKQPAASVLFVSFGSLATLSSTQLSDLALGLEASNQRILWVTRPDQIYGKAPDLPSDFLERIKDRILVFSWVPQLHVLCHTSVGGFLSHCGWNSTIESIAAGVPILAWPFFGDQMLNAKCVVEKWRIGLALTGAGGAMSKAVVETRVKDLMEGDLSKELRNRAQNLKHIVVKALSHGGSSSSNLQKLFGHL
For B2, in data set [1], the Km came to 29.8 ± 2.5 µM, the Vmax was determined as 0.0334 µmol/min/mg, the kcat stood at 0.04 ± 0.000833 s⁻¹ and the kcat/Km is 1360 M⁻¹ s⁻¹. For the same protein, in data set [2], the Km is 31.7 ± 2.9 µM, the Vmax is 0.0399 µmol/min/mg, the turnover number (kcat) was 0.0483 ± 0.001 s⁻¹ and the kcat/Km amounted to 1520 M⁻¹ s⁻¹.

These data come from paper PMC9563126, “Identification of a flavonoid C-glycosyltransferase from fern species Stenoloma chusanum and the application in synthesizing flavonoid C-glycosides in Escherichia coli” (Microbial Cell Factories, 2022).
